The target of assay [1] is T1, human TfR (cell-bound) (human, UniProt P02786 1-760).
T1 construct: Endogenous receptor on hCMEC-D3 cells (stated); also called hTFR; human transferrin receptor on hCMEC-D3 cells
Put plainly: flow cytometry on hCMEC-D3 cells (endogenous human TfR), on ice, PE-labeled secondary. The method, then:
(§1) Human endothelial line hCMEC-D3 (EMD Millipore SC066), endogenously expressing human TfR and MDCK cell line (ATCC CCL-34), engineered to express cynomolgus TfR were utilized to evaluate antibody/protein binding to cell-bound TfR. Cells were grown and maintained at submaximal confluence and detached from cultureware using Accutase cell detachment solution, washed, and allocated at 50000 cells per well for assessment of binding. Cells were treated with a viability stain then subsequently incubated with titrated concentrations of TfR binding proteins on ice. Cells were washed and binding of test antibodies or proteins was detected using a PE-labeled secondary reagent. Cells were then washed and read on the same day using a BioRad ZE5 cytometer. Analysis was performed post-acquisition in FlowJo, analyzing fluorescence of single, viable, non-debris events. EC50 values were derived by plotting geometric median PE intensity values across a given sample titration and fitting a sigmoidal (4PL) response curve in GraphPad Prism 8.3.0.
On the technique in general: A flow cytometer gives signals particle by particle.

Assay [2] addresses T2, cynomolgus TfR (on MDCK cells) (cynomolgus, UniProt H9EXL1 1-760 (rhesus entry)).
T2 construct: whole, on cells; also called Cyno MDCK
Put plainly: flow cytometry on MDCK cells engineered to express cynomolgus TfR, on ice, PE-labeled secondary. How it is done: as §1

For assay [3], the target named is T3, human TfR ECD (His-tagged) (human, UniProt P02786 89-760).
T3 construct: also called hTfR-ECD-6His; his-tagged hTfR-ECD
Description: SPR (Biacore 8K), 37 C; TfR ECD amine-coupled to CM4 chip, TBP as analyte; multi-cycle kinetics, 2-state fit; n = 3. The method, then:
(§2) Target human and cynomolgous TfR ECD's were immobilized on a CM4 chip (Cytiva P/N 29104989) using standard NHS-EDC amine coupling. The TfR binding proteins were prepared at a final concentration of 0.3, 0.1, 0.033, 0.01, 0.0033, 0.001, 0.00033, 0.0001 μM respectively by dilution of stock solution into running buffer.
(§3) Binding analysis was performed in a multi-cycle kinetics manner. Each analysis cycle consists of (1) injection of the lowest to highest concentration proteins over all Fc at 50 μL/min for 140 seconds followed by return to buffer flow for 400 seconds to monitor dissociation phase; (2) regeneration of chip surfaces with injection of 3M magnesium chloride, for 30 seconds at 100 μL/min over all cells; and (3) equilibration of chip surfaces with a 50 μL (30-sec) injection of HBS-EP+. Data were processed using standard double-referencing and fit to a 2-state binding model using Biacore 8K Evaluation software, to determine the association rate (kₒₙ, M⁻¹s⁻¹ units), dissociation rate (koff, s⁻¹ units), and Rₘₐₓ (RU units). The equilibrium dissociation constant (KD) is calculated from the relationship KD=koff/kₒₙ, and is in molar units.
On the technique in general: In SPR one partner is held on a chip, and binding of the other changes the refractive index at the surface.

The target of assay [4] is T4, cynomolgus TfR ECD (cynomolgus).
T4 construct: extracellular domain; amine-coupled in the 37 C assay; also called Cyno TfR; His-tagged cynomolgus TfR ECD
Described as above. How it is done:
as §2, §3

Assay [5] deals with T5, cynomolgus TfR ECD (cynomolgus).
T5 chain: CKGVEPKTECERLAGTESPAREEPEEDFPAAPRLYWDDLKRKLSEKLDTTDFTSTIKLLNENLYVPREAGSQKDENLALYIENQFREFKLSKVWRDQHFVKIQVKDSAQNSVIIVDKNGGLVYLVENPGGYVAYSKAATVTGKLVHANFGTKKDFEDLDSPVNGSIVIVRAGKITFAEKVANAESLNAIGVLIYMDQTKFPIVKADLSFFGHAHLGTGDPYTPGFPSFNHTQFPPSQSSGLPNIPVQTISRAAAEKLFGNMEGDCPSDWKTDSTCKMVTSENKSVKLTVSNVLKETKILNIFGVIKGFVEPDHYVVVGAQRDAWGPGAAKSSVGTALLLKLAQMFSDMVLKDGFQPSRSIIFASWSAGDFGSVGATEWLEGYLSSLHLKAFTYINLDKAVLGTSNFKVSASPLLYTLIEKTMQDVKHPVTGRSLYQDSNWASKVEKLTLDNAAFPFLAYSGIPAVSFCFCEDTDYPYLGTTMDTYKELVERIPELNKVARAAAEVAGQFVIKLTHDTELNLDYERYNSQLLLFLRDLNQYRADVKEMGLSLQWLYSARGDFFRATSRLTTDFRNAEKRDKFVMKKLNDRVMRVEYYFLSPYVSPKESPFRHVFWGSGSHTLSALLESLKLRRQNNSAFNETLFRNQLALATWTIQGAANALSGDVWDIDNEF
The assay is described as above. The method, then: as §2, §3

Assay [6] concerns the target T5, cynomolgus TfR ECD. Description: SPR (Biacore 8K), 25 C; His-tagged TfR ECD captured by anti-His antibody, TBP as analyte; single-cycle kinetics, 2-state fit. The method, then: (§4) An anti-His antibody was immobilized on a CM5 chip (Cytiva P/N 29104988) using standard NHS-EDC amine coupling on all four flow cells (Fc). Target (human or cynomolgus TfR ECD) were prepared in the running buffer at final concentration of 500 μg/mL.
(§5) Binding analysis was performed in a single-cycle kinetics manner. Each analysis cycle consists of (1) capturing the target (His-tagged human or cynomolgus TfR ECD) samples on separate flow cells (Fc2, Fc3 and Fc4); (2) injection of the lowest to highest concentration of antibodies or proteins over all Fc at 30 μL/min for 900 seconds followed by return to buffer flow for 1800 seconds to monitor dissociation phase; (3) regeneration of chip surfaces with injection of 10 mM glycine, pH 1.5, for 30 seconds at […] over all cells; and (4) equilibration of chip surfaces with a 10 μL (60-sec) injection of HBS-EP+. Data were processed using standard double-referencing and fit to a 2-state binding model using Biacore 8K Evaluation software, to determine the association rate (kₒₙ, M⁻¹s⁻¹ units), dissociation rate (koff, s⁻¹ units), and Rₘₐₓ (RU units). The equilibrium dissociation constant (KD) is calculated from the relationship KD=koff/kₒₙ, and is in molar units.

Assay [7] addresses T3, human TfR ECD (His-tagged). The description is as above. The method, then:
as §4, §5
Target sequence in this assay (P02786 other isoform, or with tags, fused parts or gaps): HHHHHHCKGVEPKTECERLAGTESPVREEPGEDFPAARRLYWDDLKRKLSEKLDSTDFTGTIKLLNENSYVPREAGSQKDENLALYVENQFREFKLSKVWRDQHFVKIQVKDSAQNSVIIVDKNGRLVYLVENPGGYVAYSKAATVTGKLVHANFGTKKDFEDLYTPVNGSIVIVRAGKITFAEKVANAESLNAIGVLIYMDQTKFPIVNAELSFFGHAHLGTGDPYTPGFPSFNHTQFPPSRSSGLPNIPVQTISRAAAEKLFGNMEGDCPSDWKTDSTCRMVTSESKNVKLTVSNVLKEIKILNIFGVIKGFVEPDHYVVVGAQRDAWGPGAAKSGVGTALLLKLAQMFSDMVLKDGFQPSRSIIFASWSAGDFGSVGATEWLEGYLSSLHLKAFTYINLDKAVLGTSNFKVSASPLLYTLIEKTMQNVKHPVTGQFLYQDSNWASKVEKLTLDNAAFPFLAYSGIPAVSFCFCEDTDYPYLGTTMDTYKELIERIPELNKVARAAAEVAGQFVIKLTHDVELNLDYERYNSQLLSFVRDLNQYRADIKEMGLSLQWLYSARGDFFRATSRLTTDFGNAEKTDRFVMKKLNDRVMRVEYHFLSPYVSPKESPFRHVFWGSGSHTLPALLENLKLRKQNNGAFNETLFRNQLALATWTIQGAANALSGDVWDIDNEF

T1 sequence (P02786 whole entry): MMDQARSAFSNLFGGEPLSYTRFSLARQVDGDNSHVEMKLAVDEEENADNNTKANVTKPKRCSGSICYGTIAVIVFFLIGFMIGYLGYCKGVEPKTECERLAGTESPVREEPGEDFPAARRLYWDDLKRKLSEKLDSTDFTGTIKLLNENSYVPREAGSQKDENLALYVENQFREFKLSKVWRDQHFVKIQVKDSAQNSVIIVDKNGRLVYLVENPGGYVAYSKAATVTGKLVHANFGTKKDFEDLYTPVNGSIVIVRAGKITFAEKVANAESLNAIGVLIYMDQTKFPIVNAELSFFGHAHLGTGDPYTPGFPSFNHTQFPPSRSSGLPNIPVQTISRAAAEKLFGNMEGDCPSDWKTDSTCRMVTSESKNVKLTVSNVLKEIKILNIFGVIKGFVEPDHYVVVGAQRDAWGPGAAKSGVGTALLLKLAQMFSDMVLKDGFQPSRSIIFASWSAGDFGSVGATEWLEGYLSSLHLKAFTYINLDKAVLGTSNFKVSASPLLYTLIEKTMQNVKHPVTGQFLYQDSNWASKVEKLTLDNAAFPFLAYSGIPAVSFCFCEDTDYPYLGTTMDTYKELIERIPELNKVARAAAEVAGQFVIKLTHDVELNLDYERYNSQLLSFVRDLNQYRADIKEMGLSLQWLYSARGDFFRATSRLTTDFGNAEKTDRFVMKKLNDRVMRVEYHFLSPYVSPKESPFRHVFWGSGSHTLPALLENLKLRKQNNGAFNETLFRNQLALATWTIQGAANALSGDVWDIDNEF

B1: TBP14-SNCA siRNA (dsRNA No. 10 in Table 11a) (antibody)
heavy: EVQLVESGGGLVKPGGSLRLSCVASGFTFSSYSMNWVRQAPGKGLEWVSSISSSSSYIYYADSVKGRFTISRDNAKNSLYLQMNSLRAEDTAVYYCARRHGYSNSDAFDNWGQGTLVTVSSASTKGPSVFPLAPCSRSTSESTAALGCLVKDYFPEPVTVSWNSGALTSGVHTFPAVLQSSGLYSLSSVVTVPSSSLGTKTYTCNVDHKPSNTKVDKRVESKYGPPCPPCPAPEAAGGPSVFLFPPKPKDTLMISRTPEVTCVVVDVSQEDPEVQFNWYVDGVEVHNAKTKPREEQFNSTYRVVSVLTVLHQDWLNGKEYKCKVSNKGLPSSIEKTISKAKGQPREPQVSTLPPSQEEMTKNQVSLMCLVYGFYPSDICVEWESNGQPENNYKTTPPVLDSDGSFFLYSVLTVDKSRWQEGNVFSCSVMHEALHNHYTQKSLSLSLG
light: DIQMTQSPSAMSASVGDRVTITCRASQGISHYLVWFQQKPGKVPKRLIYAASSLQSGVPSRFSGSGSGTEFTLTISSLQPEDFATYYCLQHNSYPWTFGQGTKVEIKRTVAAPSVFIFPPSDEQLKSGTASVVCLLNNFYPREAKVQWKVDNALQSGNSQESVTEQDSKDSTYSLSSTLTLSKADYEKHKVYACEVTHQGLSSPVTKSFNRGEC
chain: ESKYGPPCPPCPAPEAAGGPSVFLFPPKPKDTLMISRTPEVTCVVVDVSQEDPEVQFNWYVDGVEVHNAKTKPREEQFNSTYRVVSVLTVLHQDWLNGKEYKCKVSNKGLPSSIEKTISKAKGQPREPQVYTLPPSQGDMTKNQVQLTCLVKGFYPSDICVEWESNGQPENNYKTTPPVLDSDGSFFLASRLTVDKSRWQEGNVFSCSVMHEALHNHYTQKSLSLSLG
modifications: SNCA siRNA (dsRNA No. 10) conjugated through a linker at the engineered cysteine (A378C, EU numbering, by the name in Table 6b)
notes: Protein-siRNA conjugate of TBP14; also called TBP14-SNCA siRNA conjugate
B1: the EC50 (usually the concentration needed to bring the measured effect to its halfway point) in assay [1] turned out to be 298 nM; in assay [2] it was 225 nM. Also, the affinity in assay [3], expressed as Kd, was 541 nM.

B2: TBP14 (TBD4-one arm heteromab, A378C) (antibody, human IgG4 S228P, kappa, F234A L235A)
heavy: EVQLVESGGGLVKPGGSLRLSCVASGFTFSSYSMNWVRQAPGKGLEWVSSISSSSSYIYYADSVKGRFTISRDNAKNSLYLQMNSLRAEDTAVYYCARRHGYSNSDAFDNWGQGTLVTVSSASTKGPSVFPLAPCSRSTSESTAALGCLVKDYFPEPVTVSWNSGALTSGVHTFPAVLQSSGLYSLSSVVTVPSSSLGTKTYTCNVDHKPSNTKVDKRVESKYGPPCPPCPAPEAAGGPSVFLFPPKPKDTLMISRTPEVTCVVVDVSQEDPEVQFNWYVDGVEVHNAKTKPREEQFNSTYRVVSVLTVLHQDWLNGKEYKCKVSNKGLPSSIEKTISKAKGQPREPQVSTLPPSQEEMTKNQVSLMCLVYGFYPSDICVEWESNGQPENNYKTTPPVLDSDGSFFLYSVLTVDKSRWQEGNVFSCSVMHEALHNHYTQKSLSLSLG
light: DIQMTQSPSAMSASVGDRVTITCRASQGISHYLVWFQQKPGKVPKRLIYAASSLQSGVPSRFSGSGSGTEFTLTISSLQPEDFATYYCLQHNSYPWTFGQGTKVEIKRTVAAPSVFIFPPSDEQLKSGTASVVCLLNNFYPREAKVQWKVDNALQSGNSQESVTEQDSKDSTYSLSSTLTLSKADYEKHKVYACEVTHQGLSSPVTKSFNRGEC
chain: ESKYGPPCPPCPAPEAAGGPSVFLFPPKPKDTLMISRTPEVTCVVVDVSQEDPEVQFNWYVDGVEVHNAKTKPREEQFNSTYRVVSVLTVLHQDWLNGKEYKCKVSNKGLPSSIEKTISKAKGQPREPQVYTLPPSQGDMTKNQVQLTCLVKGFYPSDICVEWESNGQPENNYKTTPPVLDSDGSFFLASRLTVDKSRWQEGNVFSCSVMHEALHNHYTQKSLSLSLG
notes: One-armed antibody: two heavy chains (HC1 full, HC2 Fc only) and one light chain; no LC2
Regarding B2, the Kd – broadly, the free concentration of one partner at which half of the binding sites on the other are occupied at equilibrium, for simple one-to-one binding – turned out to be 154 nM in assay [3] and 300 nM in assay [4].

B3: TBP5 (TBD5 Fab-hIgG4PAA Fc) (antibody, V domains shown)
VH: EVQLVESGGGLVQPGGSLRLSCAASGFTFRTYWMHWVRQAPGKGLLWVSRINGDGSRTNYADSVKGRFTISRDNAKKTLYLQMNSLRAEDTAVYFCARSSYAFDVWGQGTMVTVSS
VL: DVVMTQTPLSLPVTPGEPASISCRSSQSLLDSDDGSTYLDWYLQKPGQSPQLLIYLLSNRASGVPDRFSGSGSGTVFTLKISSVEAADVGVYYCMQRIEFPLTFGGGTKVEIKR
notes: Fab-Fc format, one HC and one LC
Consider B3, for which the 50% effective concentration (EC50) stood at 4.83 nM in assay [1] and 1.63 nM in assay [2]. For the same molecule, the Kd stood at 156 nM in assay [5], 4.25 nM in assay [3], 1.47 nM in assay [6] and 590 pM in assay [7].

B4: TBP6 (TBD6 Fab-hIgG4PAA Fc) (antibody, V domains shown)
VH: EVQLVESGGGLVQPGGSLRLSCAASGFTFRTYWMHWVRQAPGKGLVWVSRINSDGSRTNYADSVKGRFTISRDNAKNTLYLQMNSLRAEDTAVYYCARSSYAFDVWGQGTLVTVSS
VL: DIVMTQTPLSLPVTPGEPASISCRSSQSLLDSDDGSTYLDWYLQKPGQSPQLLIYLLSNRASGVPDRFSGSGSGTDFTLKISRVEAEDVGVYYCMQRIEFPLTFGGGTKVEIKR
notes: as for B3
In the case of B4, the EC50 in assay [1] came out at 1.2 nM; in assay [2], 0.76 nM. Further, the Kd in assay [5] came to 92.5 nM; in assay [3], 2.25 nM; in assay [6], 7.7 nM; in assay [7], 60 pM.

B5: TBP1 (TBD1 Fab-hIgG4PAA Fc) (antibody, V domains shown)
VH: EVQLVESGGGLVKPGGSLRLSCVASGFTFSSYSMNWVRQAPGKGLEWVSSISRSSSYIYYADSVKGRFTISRDNAKNSLYLQMNSLRAEDTAVYYCAREHGYSNSDAFDIWGQGTLVTVSS
VL: DIQMTQSPSAMSASVGDRVTITCRASQGISNYLAWFQQKPGKVPKRLIYAASSLQSGVPSRFSGSGSGTEFTLTISSLQPEDFATYYCLQHNSYPRTFGQGTKVEIKR
Take B5: the concentration giving a half-maximal response (EC50) stood at 0.47 nM in assay [1] and 510 nM in assay [2]. In addition, the dissociation constant Kd in assay [3] stood at 0.966 nM; in assay [6], 145 nM; in assay [7] it was 110 pM.

B6: TBP3 (TBD3 Fab-hIgG4PAA Fc) (antibody, V domains shown)
VH: EVQLVESGGGLVKPGGSLRLSCVASGFTFSSYSMNWVRQAPGKGLEWVSSISRSSSYIYYADSVKGRFTISRDNAKNSLYLQMNSLRAEDTAVYYCARIHGYSNSDAFDIWGQGTLVTVSS
VL: DIQMTQSPSAMSASVGDRVTITCRASQGISHYLVWFQQKPGKVPKRLIYAASSLQSGVPSRFSGSGSGTEFTLTISSLQPEDFATYYCLQHNSYPRTFGQGTKVEIKR
notes: as for B3
For B6, the EC50 in assay [1] is 0.14 nM; in assay [2], 0.15 nM. Moreover, the Kd is 0.254 nM in assay [5], 0.005 nM in assay [3], 0.015 nM in assay [6] and 0.048 pM in assay [7].

The values above are taken from patent publication US20240059784A1 (Eli Lilly, published 2024).
